Numbering of substitutions follows the chain as printed.
B1: humanized anti-human PD-L1 monoclonal antibody VLS10-VHS7 (antibody, human IgG1, kappa, V domains shown)
VH: QVQLVQSGAEVKKPGSSVKVSCTASGFNIEDTYIHWVRQAPGQGLEWMGRIDPANGNTKYDPKFQGRVTITADTSTNTAYMELSSLRSEDTAVYYCGRGLGAWFAYWGQGTLVTVSS
VL: DIQMTQSPSSLSASVGDRVTITCKASQDVHTAVAWIHQKPGKAPKLLIYSASNRYTGVPSRFSGSGSGTDFTFTISSLQPEDIATYYCQQHYITPLTFGQGTKLEIKR
B2: humanized anti-human PD-L1 monoclonal antibody VLS10-VHS7 P1 (antibody, human IgG1, kappa, V domains shown)
VH: B1 VH with N55Q
VL: B1 VL
B3: humanized anti-human PD-L1 monoclonal antibody VLS15-VHS12 P1 (antibody, human IgG1, kappa, V domains shown)
VH: B1 VH with Q1E, T23K, N55Q
VL: B1 VL with H37Q, A43S
B4: humanized anti-human PD-L1 monoclonal antibody VLS15-VHS12 P3 (antibody, human IgG1, kappa, V domains shown)
VH: B1 VH with Q1E, T23K, G56A
VL: B1 VL with H37Q, A43S
B5: humanized anti-human PD-L1 monoclonal antibody VLS10-VHS7 P2 (antibody, human IgG1, kappa, V domains shown)
VH: B1 VH with N55S
VL: B1 VL
B6: humanized anti-human PD-L1 monoclonal antibody VLS15-VHS12 (antibody, human IgG1, kappa, V domains shown)
VH: B1 VH with Q1E, T23K
VL: B1 VL with H37Q, A43S
B7: humanized anti-human PD-L1 monoclonal antibody VLS10-VHS7 P3 (antibody, human IgG1, kappa, V domains shown)
VH: B1 VH with G56A
VL: B1 VL
B8: humanized anti-human PD-L1 monoclonal antibody VLS15-VHS12 P2 (antibody, human IgG1, kappa, V domains shown)
VH: B1 VH with Q1E, T23K, N55S
VL: B1 VL with H37Q, A43S
B9: humanized anti-human PD-L1 monoclonal antibody VLS9-VHS6 (antibody, human IgG1, kappa, V domains shown)
VH: B1 VH with V68A, T74E
VL: B1 VL with I36Y, H37Q
B10: humanized anti-human PD-L1 monoclonal antibody VLS10-VHS1 (antibody, human IgG1, kappa, V domains shown)
VH: B1 VH with T74E, N77S
VL: B1 VL
B11: humanized anti-human PD-L1 monoclonal antibody VLS15-VHS14 (antibody, human IgG1, kappa, V domains shown)
VH: B1 VH with Q1E, T23K, M48I, V68A
VL: B1 VL with H37Q, A43S
B12: humanized anti-human PD-L1 monoclonal antibody VLS10-VHS4 (antibody, human IgG1, kappa, V domains shown)
VH: B1 VH with T74E
VL: B1 VL
B13: humanized anti-human PD-L1 monoclonal antibody VLS10-VHS6 (antibody, human IgG1, kappa, V domains shown)
VH: B1 VH with V68A, T74E
VL: B1 VL
B14: humanized anti-human PD-L1 monoclonal antibody VLS9-VHS4 (antibody, human IgG1, kappa, V domains shown)
VH: B1 VH with T74E
VL: B1 VL with I36Y, H37Q
B15: humanized anti-human PD-L1 monoclonal antibody VLS9-VHS3 (antibody, human IgG1, kappa, V domains shown)
VH: B1 VH with N77S
VL: B1 VL with I36Y, H37Q
B16: humanized anti-human PD-L1 monoclonal antibody VLS10-VHS3 (antibody, human IgG1, kappa, V domains shown)
VH: B1 VH with N77S
VL: B1 VL
B17: humanized anti-human PD-L1 monoclonal antibody VLS10-VHS2 (antibody, human IgG1, kappa, V domains shown)
VH: B1 VH with V68A, T74E, N77S
VL: B1 VL
B18: humanized anti-human PD-L1 monoclonal antibody VLS9-VHS8 (antibody, human IgG1, kappa, V domains shown)
VH: B1 VH with V68A
VL: B1 VL with I36Y, H37Q
B19: humanized anti-human PD-L1 monoclonal antibody VLS9-VHS5 (antibody, human IgG1, kappa, V domains shown)
VH: B1 VH with V68A, N77S
VL: B1 VL with I36Y, H37Q
B20: humanized anti-human PD-L1 monoclonal antibody VLS10-VHS8 (antibody, human IgG1, kappa, V domains shown)
VH: B1 VH with V68A
VL: B1 VL
B21: humanized anti-human PD-L1 monoclonal antibody VLS9-VHS1 (antibody, human IgG1, kappa, V domains shown)
VH: B1 VH with T74E, N77S
VL: B1 VL with I36Y, H37Q
B22: humanized anti-human PD-L1 monoclonal antibody VLS9-VHS2 (antibody, human IgG1, kappa, V domains shown)
VH: B1 VH with V68A, T74E, N77S
VL: B1 VL with I36Y, H37Q
B23: humanized anti-human PD-L1 monoclonal antibody VLS10-VHS5 (antibody, human IgG1, kappa, V domains shown)
VH: B1 VH with V68A, N77S
VL: B1 VL
B24: humanized anti-human PD-L1 monoclonal antibody VLS9-VHS7 (antibody, human IgG1, kappa, V domains shown)
VH: B1 VH
VL: B1 VL with I36Y, H37Q
B25: humanized anti-human PD-L1 monoclonal antibody VLS15-VHS13 (antibody, human IgG1, kappa, V domains shown)
VH: B1 VH with Q1E, T23K, M48I, V68A, T74E
VL: B1 VL with H37Q, A43S
B26: humanized anti-human PD-L1 monoclonal antibody VLS15-VHS11 (antibody, human IgG1, kappa, V domains shown)
VH: B1 VH with Q1E, T23K, T74E
VL: B1 VL with H37Q, A43S
B27: murine anti-human PD-L1 monoclonal antibody secreted by the clone 34-35 (antibody, V domains shown)
VH: EVQLQQSGAELVKPGASVKLSCTASGFNIEDTYIHWVMQRPEQGLEWIGRIDPANGNTKYDPKFQGKATITADTSSNTAYLQLSSLTSEDTAVYYCGRGLGAWFAYWGQGTLVTVSA
VL: DIVMTQSHKVMSTSVGDRVTITCKASQDVHTAVAWIHQKPGQSPKLLIYSASNRYTGVPDRFTGSGSGTDFTFTISSVQAEDLAVYYCQQHYITPLTFGAGTTLELK
notes: also called murine monoclonal antibodies

What follows are binders tested against T1, recombinant human PD-L1 (Sino Biological Inc.) (human, UniProt Q9NZQ7 19-239) (assay: SPR, Biacore X100).
T1 sequence (Q9NZQ7 19-239 limits assumed): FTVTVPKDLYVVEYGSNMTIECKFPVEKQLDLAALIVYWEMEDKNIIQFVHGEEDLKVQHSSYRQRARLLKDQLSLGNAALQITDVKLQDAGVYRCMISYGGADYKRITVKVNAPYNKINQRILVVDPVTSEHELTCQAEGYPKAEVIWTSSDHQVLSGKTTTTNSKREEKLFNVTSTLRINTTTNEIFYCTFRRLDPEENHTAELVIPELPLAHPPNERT
Description: This instrument utilizes optical surface plasmon resonance technology to detect the association and dissociation between the molecules coated on the biochip and the molecules to be tested. Association constants and dissociation constants were analyzed and calculated by Biacore X100 evaluation software. […]

Kd	koff	kon	Binder
1.71 nM	0.000584 s⁻¹	341000 M⁻¹ s⁻¹	B1
3.16 nM	0.00108 s⁻¹	341000 M⁻¹ s⁻¹	B2
2.56 nM	0.000833 s⁻¹	326000 M⁻¹ s⁻¹	B3
1.56 nM	0.000528 s⁻¹	338000 M⁻¹ s⁻¹	B4
3.23 nM	0.000994 s⁻¹	307000 M⁻¹ s⁻¹	B5
1.39 nM	0.000477 s⁻¹	342000 M⁻¹ s⁻¹	B6
2.93 nM	0.000747 s⁻¹	255000 M⁻¹ s⁻¹	B7
1.94 nM	0.00072 s⁻¹	372000 M⁻¹ s⁻¹	B8

Each binder was assayed against T1, recombinant human PD-L1 (Sino …) (assay: ELISA, human PD-L1 coated).
Description: (§1) A 96-well high-adsorption ELISA plate was coated with 1 μg/mL of the recombinant human PD-L1 (Sino Biological Inc.) at 100 μL per well using carbonate buffer solution, pH=9.6 at 4° C. overnight. The plate was washed 5 times with PBST, and then blocked using PBST with 1% BSA, 300 μL/well, and incubated at 25° C. for 1 hour, and then washed 5 times with PBST. […] The horseradish peroxidase-labeled anti-human IgG antibody (Chemicon, catalog number AP309P) diluted 1:10000 in PBST with 1% BSA was then added, 100 μL per well, and incubated at 25° C. for 1 hour. The plate was washed 5 times with PBST. The colorimetric substrate TMB was added, 100 μL/well, and developed at room temperature for 10 minutes. 1M H₂SO₄ was added, 100 μL/well, to stop the development. The absorbance at 450 nm was read on a microplate reader.

EC50	Binder
0.067 nM	B1
0.067 nM	B2
0.048 nM	B3
0.075 nM	B4
0.059 nM	B5
0.046 nM	B6
0.063 nM	B7
0.06 nM	B8

What follows are binders tested against T1, recombinant human PD-L1 (Sino …) (assay: PD-L1/CD80 blocking assay, competitor CD80, format not described).

IC50	Binder
0.89 nM	B1
0.865 nM	B2
0.795 nM	B3
0.813 nM	B4
0.857 nM	B5
0.802 nM	B6
0.804 nM	B7
0.755 nM	B8

Each binder was assayed against T1, recombinant human PD-L1 (Sino …) (assay: affinity determination (dissociation constant), method not stated).

koff	Binder
0.000672 s⁻¹	B1
0.00618 s⁻¹	B9
0.00424 s⁻¹	B10
0.000452 s⁻¹	B11
0.00156 s⁻¹	B12
0.00121 s⁻¹	B13
0.00544 s⁻¹	B14
0.0052 s⁻¹	B15
0.00121 s⁻¹	B16
0.00325 s⁻¹	B17
0.00532 s⁻¹	B18
0.00438 s⁻¹	B19
0.000652 s⁻¹	B20
0.00597 s⁻¹	B21
0.00599 s⁻¹	B22
0.000486 s⁻¹	B6
0.000994 s⁻¹	B23
0.0058 s⁻¹	B24
0.000763 s⁻¹	B25
0.000841 s⁻¹	B26

The binders below were run against T2, recombinant human PD-L1-Fc protein (human, UniProt Q9NZQ7 19-238, limits assumed) (assay: competition ELISA: PD-L1-Fc coated, competitor biotin-labelled PD-1-Fc).
T2 construct: Prepared by Beijing Hanmi Pharmaceutical; The GenBank number is NP_001254635.1
T2 sequence (Q9NZQ7 19-238 limits assumed): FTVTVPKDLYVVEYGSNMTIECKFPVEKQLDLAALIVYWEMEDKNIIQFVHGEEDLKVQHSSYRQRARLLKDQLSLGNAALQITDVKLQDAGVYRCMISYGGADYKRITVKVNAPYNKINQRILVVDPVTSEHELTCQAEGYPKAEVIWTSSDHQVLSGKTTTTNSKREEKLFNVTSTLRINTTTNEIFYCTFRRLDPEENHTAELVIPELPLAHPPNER
Description: as §1, with “PD-L1-Fc” for “PD-L1 (Sino Biological Inc.)”, “Streptavidin-HRP (BD Pharmingen,” for “horseradish peroxidase-labeled anti-human IgG antibody (Chemicon,”, “554066)” for “AP309P)”, “1:1000” for “1:10000”

IC50	Binder
0.749 nM	B1
0.756 nM	B2
0.567 nM	B3
0.613 nM	B4
0.725 nM	B5
0.666 nM	B6
0.617 nM	B7
0.585 nM	B8

These binders were tested against T1, recombinant human PD-L1 (Sino …) (assay: ELISA, plate coated with 1 ug/mL recombinant human PD-L1, anti-mouse IgG-HRP, OD450).
Description: The plate was washed 5 times with PBST, and then blocked using PBST with 1% BSA, 300 μL/well, and incubated at 25° C. for 1 hour, and then washed 5 times with PBST. […] The plate was washed 5 times with PBST. The colorimetric substrate TMB was added, 100 μL/well, and developed at room temperature for 10 minutes. 1M H₂SO₄ was added, 100 μL/well, to stop the development. The absorbance at 450 nm was read on a microplate reader.

EC50	Binder
0.494 nM	B27

The binders below were run against T2, recombinant human PD-L1-Fc protein (assay: blocking ELISA, plate coated with 1 ug/mL human PD-L1-Fc; blocked ligand biotin-labelled PD-1-Fc at 20 nM final, streptavidin-HRP, OD450).
Description: as §1, with “PD-L1-Fc” for “PD-L1 (Sino Biological Inc.)”, “Streptavidin-HRP (BD Pharmingen,” for “horseradish peroxidase-labeled anti-human IgG antibody (Chemicon,”, “554066)” for “AP309P)”, “1:1000” for “1:10000”

IC50	Binder
0.61 nM	B27

From US20240301068A1 (BEIJING HANMI PHARMACEUTICAL, published 2024)
